Results taken from patent publication US6875737 (TRUSTEES OF TUFTS COLLEGE, dated 2005).
Numbered stars: 1 amine (or outer) side, 2 acyl side, 3 side chain; on linkers, the order of the positions; unused ones are H or OH. Square brackets hold non-standard residues; d marks the D form. Ends that are not written are not given here. * marks the point of attachment. εLys = N[C@@H](CCCCN[*:1])C(=O)[*:2]; Adipoyl = O=C(CCCCC(=O)[*:2])[*:1]; boroPro = OB(O)[C@@H]1CCCN1*

B1: KbP2-Adipate (di(L-Lysine-L-boroProline)adipate) (peptide)
peptide: Lys(Adipoyl)-[boroPro]
modifications: also: dimer: two Lys-boroPro joined by adipoyl linker between lysine ε-amino groups

What was measured:
Test in all cases: cell-based or functional assay
[1] = target: T1, T cell receptor of the PLP 139-151 specific T cell clone 4E3.B11.D9.H10.H6
[2] = target: T cell receptor of the PLP 139-151 specific T cell clone SPL.C1.H2.F2
[3] = target: T cell receptor of the PLP 139-151 specific T cell clone 7A5.F10.G11
[4] = target: T cell receptor of the PLP 139-151 specific T cell clone 2E5.G10.G5.E5
[5] = target: T2, T cell receptor of the PLP 139-151 specific T cell clone 5B8.G8.E6.H12
[6] = target: T1, T cell receptor of the PLP 139-151 …; remark: listed apart in the source
[7] = target: T2, T cell receptor of the PLP 139-151 …; remark: listed apart in the source
[8] = target: CD26 on H9 T cells (UniProt P27487 1-766, limits assumed)
Sequence of CD26 on H9 T cells (P27487 whole entry): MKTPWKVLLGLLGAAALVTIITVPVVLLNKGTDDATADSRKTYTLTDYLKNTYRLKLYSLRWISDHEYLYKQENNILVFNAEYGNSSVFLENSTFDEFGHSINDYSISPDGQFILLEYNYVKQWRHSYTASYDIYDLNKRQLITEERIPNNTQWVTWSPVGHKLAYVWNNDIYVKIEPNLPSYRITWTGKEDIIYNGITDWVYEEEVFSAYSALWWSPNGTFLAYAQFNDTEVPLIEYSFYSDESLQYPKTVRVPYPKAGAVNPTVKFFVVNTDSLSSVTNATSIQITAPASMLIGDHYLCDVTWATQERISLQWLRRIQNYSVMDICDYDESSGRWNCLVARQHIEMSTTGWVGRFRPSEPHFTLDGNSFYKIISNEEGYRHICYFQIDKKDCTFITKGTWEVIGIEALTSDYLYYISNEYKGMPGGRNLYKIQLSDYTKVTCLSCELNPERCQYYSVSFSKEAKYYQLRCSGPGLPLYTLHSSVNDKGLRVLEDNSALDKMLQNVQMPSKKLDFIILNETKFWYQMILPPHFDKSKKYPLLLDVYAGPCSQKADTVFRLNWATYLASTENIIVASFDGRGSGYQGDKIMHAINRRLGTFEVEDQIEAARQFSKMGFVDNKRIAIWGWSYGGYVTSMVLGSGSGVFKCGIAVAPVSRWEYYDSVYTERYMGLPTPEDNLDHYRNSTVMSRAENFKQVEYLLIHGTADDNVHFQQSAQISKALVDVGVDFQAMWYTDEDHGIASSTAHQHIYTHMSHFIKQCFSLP

Row | Binder | proliferation (thymidine uptake), antigen dose 0.1 µM [1] | proliferation (thymidine uptake), antigen dose 1 µM [1] | proliferation (thymidine uptake), antigen dose 10 µM [1] | proliferation (thymidine uptake), antigen dose 100 µM [1] | proliferation (thymidine uptake), antigen dose 0.1 µM [2] | proliferation (thymidine uptake), antigen dose 1 µM [2] | proliferation (thymidine uptake), antigen dose 10 µM [2] | proliferation (thymidine uptake), antigen dose 100 µM [2] | proliferation (thymidine uptake), antigen dose 0.1 µM [3] | proliferation (thymidine uptake), antigen dose 1 µM [3] | proliferation (thymidine uptake), antigen dose 10 µM [3] | proliferation (thymidine uptake), antigen dose 100 µM [3] | proliferation (thymidine uptake), antigen dose 0.1 µM [4] | proliferation (thymidine uptake), antigen dose 1 µM [4] | proliferation (thymidine uptake), antigen dose 10 µM [4] | proliferation (thymidine uptake), antigen dose 100 µM [4] | proliferation (thymidine uptake), antigen dose 1 µM [5] | proliferation (thymidine uptake), antigen dose 10 µM [5] | proliferation (thymidine uptake), antigen dose 100 µM [5] | further results
1 | HSLGKWLGHPDKFAAAAAA-{εLys-boroPro} | 3690 3H counts | 8580 3H counts | 15800 3H counts | 17600 3H counts | 681 3H counts | 2530 3H counts | 17500 3H counts | 31600 3H counts | 187 3H counts | 8200 3H counts | 35500 3H counts | 44000 3H counts | 175 3H counts | 7740 3H counts | 26400 3H counts | 36700 3H counts | 22000 3H counts | 53600 3H counts | 34700 3H counts | enhancement of the proliferative response against PLP 139-151 [6]: ~2000 fold; enhancement of the proliferative response against PLP 139-151 [7]: ~200 fold
2 | HSLGKWLGHPDKF [Myelin proteolipid protein peptide PLP 139-151 (HSLGKWLGHPDKF)] | 318 3H counts | 125 3H counts | 534 3H counts | 1930 3H counts | 423 3H counts | 107 3H counts | 400 3H counts | 809 3H counts | 117 3H counts | 222 3H counts | 406 3H counts | 2320 3H counts | 101 3H counts | 288 3H counts | 70 3H counts | 1510 3H counts | 349 3H counts | 9180 3H counts | 41100 3H counts | proliferation (thymidine uptake), antigen dose 0.1 µM [5]: 106 3H counts
3 | B1 | – | – | – | – | – | – | – | – | – | – | – | – | – | – | – | – | – | – | – | augmentation of IL-2 production by anti-CD3 (OKT3) stimulated H9 cells [8]: ≤ 4 fold
